The data set in a line: yeast display, Sf9 membrane polyspecificity reagent, FACS + sequencing; frameworks hold sequencing errors. Summed up: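 Galactose induction of a Saccharomyces cerevisiae BJ5465 synthetic nanobody display library ran 36–48 hours. The cells were then stained for 1 hour at 4 °C with 10% biotinylated, detergent-solubilized Sf9 membrane reagent, pulled down on streptavidin microbeads and FACS-sorted into low and high (top ~1%) gates on expression and reagent-binding fluorescence. Labels for polyreactivity follow the gate of origin.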
Consider “QVQLVESGGGLVQAGGSLRLSCAASGRTFGGNAMGWYRQAPGKERELVAAISRSGGRTYYADSVKGRFTISRDNAKNTVYLQMNSLKPEDTAVYYCAAKYQYTQYDYWGQGTQVTVSS”, for which the “polyreactivity (PSR sort gate)” value is “high polyreactivity”.
The value for “QVQLVESGGGLVQAGGSLRLSCAASGRTFGGNSMGWYRQAPAKERELVAAISRGGSTKYADSVKGRFTISRDNAKNTVYLQMNSLKPEDTAVYYCAASPKFHYDYWGQGTQVTVSS” was “low polyreactivity”; that for “QVQLVESGGGLVQAGGSLRLSCAASGRTFGGYAMGWYRQAPGKERELVAAIRSRGGRTYYADSVKGRFTISRDNAKNTVYLQMNSLKPEDTAVYYCATYGNKWGEDYWGQGTQVTVSS” was “high polyreactivity”.
Regarding “QVQLVESGGGLVQAGGSLRLSCAASGRTFGGYAMGWYRQAPGKETQLVATITSGGSTYYADSVKGRFTISRDNAKNTVYLQMTSLKPEDTAVYYCAADTYFETSTRAIPSNDYWGQGTQVTVSS”, the “polyreactivity (PSR sort gate)” value is on record as “low polyreactivity”.
The value for “QVQLVESGGGLVQAGGSLRLSCAASGRTFGGYDMGWYRQAPGKERELVAAISSGGRTYYADSVKGRFTISRDNAKNSVYLQMNSLKPEDTAVYYCAAKYRKWPIDYWGQGTQVTVSS” was “high polyreactivity”; that for “QVQLVESGGGLVQAGGSLRLSCAASGRTFGGYTMGWYRQATGKEMELVAAITGSGSNTYYADSVKGRFTISRDNAKNTVYLQMNSLKPEDTAVYYCAAPYSYRTWYPYGYWGQGTQVTVSS” was “high polyreactivity”; that for “QVQLVESGGGLVQAGGSLRLSCAASGRTFGGYVMGWYRQAPGKERELVATITYSGGSTHYADSVKGRFTISRDNAKNTVYLQINSLKPEDTAVYYCARRRSYRYPSEYNYWGQGTQVTVSS” was “high polyreactivity”.
The value for “QVQLVESGGGLVQAGGSLRLSCAASGRTFGINAMGWYRQAPGKDRELVAAIRTGGSTYYADSVKGRFTISRDNAMNTVYLQMNSLKPEDTAVYYCAAKAYRRYTIPPYGYWGQGTQVTVSS” was “high polyreactivity”.
Turning to “QVQLVESGGGLVQAGGSLRLSCAASGRTFGINAMGWYRQAPGKERELVAVISFADGGTYYADSVKGRFTISRDNAKNTVYLQMNSLKPEDTAVYYCATDYQSTSVWGGHFVINPYDYWGLGTQVTVSS”, the “polyreactivity (PSR sort gate)” value is reported as “low polyreactivity”.
As to “QVQLVESGGGLVQAGGSLRLSCAASGRTFGINAMGWYRQAPGKETELVAVISFGDGGTYYADSVKGRFTISRDNAKNTVYLQMNSLTPEDTAVYYCATDYQSTSVWGGHFVINPYDYWGQGTQVTVSS”, the “polyreactivity (PSR sort gate)” value is on record as “low polyreactivity”.
As for “QVQLVESGGGLVQAGGSLRLSCAASGRTFGIYAMGWYRQAPGKERELVAAISRGGNTYADSVKGRFTISRDNAKNSVYLQMNSLKPEDTAVYYCAADRRYRPGDYWGQGTQVTVSS”, the entry is “high polyreactivity”; as for “QVQLVESGGGLVQAGGSLRLSCAASGRTFGIYAMGWYRQAPGKERELVASISWSGGRTYYADSVKGRFTISRDNAKNTVYLQMNSLKPEDTAVYYCAAYGVYYPRSWQYFDWYGYWGQGTQVTVSS”, “high polyreactivity”.
As for “QVQLVESGGGLVQAGGSLRLSCAASGRTFGKNAMGWYRQAPGKERELVAAISGSGGSTYYADSVKGRFTISRDNAKNTVSLQMNSLKPEDTADYYCAKSYYGKYYPSDYWGQGTQVTVSS”, the entry is “low polyreactivity”; as for “QVQLVESGGGLVQAGGSLRLSCAASGRTFGKYAMGWYRQAPGKERELVAAITTRVVITYYADSVKGRFTISRDTAKNTVYLQMNSLKPEDTAVYYCAADPEKIYRPFNHYYYWGQGTQVTVSS”, “low polyreactivity”; as for “QVQLVESGGGLVQAGGSLRLSCAASGRTFGKYAMGWYRQAPRKEREFFAAISRSGGNTYYADTVKGRFTISRDNAKNTVYLQMTSLIPEDTAVYYCARGLSTYVLSHGLEYRTYFYWGQGTQVTVSS”, “high polyreactivity”.
The value for “QVQLVESGGGLVQAGGSLRLSCAASGRTFGKYAMGWYSQAPGKERELVAAISSGGTTYYADSVKGRFTISRDNAKNTVYLQMNSVIPEDTAVYYCAADPRYPYNYWGQGTQVTVSS” was “low polyreactivity”.

The values above are taken from the nanobody polyreactivity screen of Harvey et al. (2022).
